Assay results reported in publication PMC12802285, “PPE64 is a mycomembrane channel protein that functions in heme iron uptake and moonlights in biofilm formation in Mycobacterium tuberculosis” (mBio, 2025).
Values joined by “and” are separate entries in the source; they are usually repeats but may differ in a detail not shown here. Equal values may be shown once.

Biological target: the molecule itself
Experiment: native gel or EMSA

B1: PPE64 mycomembrane channel protein (recombinant, detergent-refolded) (natural protein)
chain: MAHFSVLPPEINSLRMYLGAGSAPMLQAAAAWDGLAAELGTAASSFSSVTTGLTGQAWQGPASAAMAAAAAPYAGFLTTASAQAQLAAGQAKAVASVFEAAKAAIVPPAAVAANREAFLALIRSNWLGLNAPWIAAVESLYEEYWAADVAAMTGYHAGASQAAAQLPLPAGLQQFLNTLPNLGIGNQGNANLGGGNTGSGNIGNGNKGSSNLGGGNIGNNNIGSGNRGSDNFGAGNVGTGNIGFGNQGPIDVNLLATPGQNNVGLGNIGNNNMGFGNTGDANTGGGNTGNGNIGGGNTGNNNFGFGNTGNNNIGIGLTGNNQMGINLAGLLNSGSGNIGIGNSGTNNIGLFNSGSGNIGVFNTGANTLVPGDLNNLGVGNSGNANIGFGNAGVLNTGFGNASILNTGLGNAGELNTGFGNAGFVNTGFDNSGNVNTGNGNSGNINTGSWNAGNVNTGFGIITDSGLTNSGFGNTGTDVSGFFNTPTGPLAVDVSGFFNTASGGTVINGQTSGIGNIGVPGTLFGSVRSGLNTGLFNMGTAISGLFNLRQLLG
notes: also called PPE64_(OPOE); PPE64DDM
stoichiometry N: 9 and 3
